Experimental data as given in patent US5629176A, “Human Kunitz-type protease inhibitor variants” (Novo Nordisk A/S, priority 1994, dated 1997).

Tests used:
Porcine trypsin = target: T1, Porcine trypsin (Sus scrofa, UniProt P00761); test: Inhibition of serine proteinases: trypsin, peptidyl nitroanilide substrate; format: biochemical; conditions: 30 minutes incubation, substrate 0.6 mM, residual activity at 405 nm
T1 construct: purchased Novo Nordisk A/S
Experimental: (§1) The variants were purified from the yeast culture medium as described in example 1. The concentration of KFN 1651 was determined from the absorbance at 214 nm using aprotinin as a standard. Porcine trypsin was obtained from Novo Nordisk A/S. Human plasmin was obtained from Kabi (Stockholm, Sweden). Human neutrophil cathepsin G and elastase were purified from extracts of PMNs according to the method described by Baugh and Travis, Biochemistry 15, 1976, 836-843.
(§2) Peptidyl nitroanilide substrates S2251 ans S2586 were obtained from Kabi (Stockholm, Sweden), and S7388 and M 4765 were obtained from Sigma Chemical Co. (St. Louis, Mo., USA).
(§3) The serine proteinases were incubated with various concentrations of KFN 1900 or 1901 for 30 minutes. Substrate was then added (0.6 mM) and residual proteinase activity was measured at 405 nm.

Human plasmin = target: T2, Human plasmin (Homo sapiens, UniProt P00747); test: Inhibition of serine proteinases: plasmin, peptidyl nitroanilide substrate; format: biochemical; conditions: at 1 μM; 30 minutes incubation, substrate 0.6 mM, 405 nm
T2 construct: purchased Kabi (Stockholm, Sweden)
T2 sequence (P00747 581-810 limits assumed): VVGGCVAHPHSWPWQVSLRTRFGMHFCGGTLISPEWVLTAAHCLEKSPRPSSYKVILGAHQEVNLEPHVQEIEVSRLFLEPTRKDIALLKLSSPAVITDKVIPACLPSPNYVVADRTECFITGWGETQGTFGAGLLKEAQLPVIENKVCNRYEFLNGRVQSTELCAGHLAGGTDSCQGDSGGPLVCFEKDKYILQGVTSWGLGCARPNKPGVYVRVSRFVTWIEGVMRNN
T2 sequence (P00747 97-580 partner limits assumed): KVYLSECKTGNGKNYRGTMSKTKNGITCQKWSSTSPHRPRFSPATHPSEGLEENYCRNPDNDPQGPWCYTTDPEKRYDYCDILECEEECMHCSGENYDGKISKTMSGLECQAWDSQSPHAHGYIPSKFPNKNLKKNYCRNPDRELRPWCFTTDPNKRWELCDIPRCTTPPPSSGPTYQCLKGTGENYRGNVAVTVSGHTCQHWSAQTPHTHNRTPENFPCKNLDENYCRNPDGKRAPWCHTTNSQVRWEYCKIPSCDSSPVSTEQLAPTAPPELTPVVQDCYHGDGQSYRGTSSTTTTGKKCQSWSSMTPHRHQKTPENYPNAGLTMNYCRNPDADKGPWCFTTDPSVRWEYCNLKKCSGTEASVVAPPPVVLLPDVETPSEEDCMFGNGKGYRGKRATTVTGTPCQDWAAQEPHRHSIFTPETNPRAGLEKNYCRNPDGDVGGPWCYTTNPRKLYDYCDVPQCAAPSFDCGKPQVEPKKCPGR
Experimental: as §1, §2, §3

[1] = target: T3, Human neutrophil cathepsin G (Homo sapiens, UniProt P08311); test: Inhibition of serine proteinases: cathepsin G, peptidyl nitroanilide substrate; format: biochemical; conditions: 30 minutes incubation, substrate 0.6 mM, 405 nm
T3 construct: Human neutrophil cathepsin G and elastase were purified from extracts of PMNs; from tissue; host or cells: human polymorphonuclear leukocytes (PMNs)
T3 sequence (P08311 21-255): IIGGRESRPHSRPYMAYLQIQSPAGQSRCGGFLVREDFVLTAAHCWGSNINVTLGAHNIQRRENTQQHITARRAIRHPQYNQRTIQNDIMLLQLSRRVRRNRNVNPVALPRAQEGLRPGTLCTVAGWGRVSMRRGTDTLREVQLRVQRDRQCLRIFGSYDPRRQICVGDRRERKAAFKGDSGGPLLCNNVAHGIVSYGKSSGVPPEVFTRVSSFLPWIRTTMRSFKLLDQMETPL
Experimental: as §1, §2, §3

[2] = target: T4, Human neutrophil elastase (Homo sapiens, UniProt P08246); test: Inhibition of serine proteinases: neutrophil elastase, peptidyl nitroanilide substrate; format: biochemical; conditions: 30 minutes incubation, substrate 0.6 mM, 405 nm
T4 construct: Human neutrophil cathepsin G and elastase were purified from extracts of PMNs; from tissue; host or cells: human polymorphonuclear leukocytes (PMNs)
T4 sequence (P08246 30-267): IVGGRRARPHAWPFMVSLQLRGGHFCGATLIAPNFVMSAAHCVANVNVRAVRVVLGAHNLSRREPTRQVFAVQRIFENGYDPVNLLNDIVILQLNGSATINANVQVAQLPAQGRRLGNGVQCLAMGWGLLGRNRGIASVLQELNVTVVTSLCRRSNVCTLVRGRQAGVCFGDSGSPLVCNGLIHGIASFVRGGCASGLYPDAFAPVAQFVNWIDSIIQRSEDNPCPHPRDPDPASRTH
Experimental: as §1, §2, §3

[3] = target: Porcine trypsin (porcine) (UniProt P00761); test: inhibition of the proteinase, 30 minutes preincubation, residual activity on a peptidyl nitroanilide substrate at 405 nm
collagenase = conditions: cited from earlier work

T1 sequence (P00761 9-231): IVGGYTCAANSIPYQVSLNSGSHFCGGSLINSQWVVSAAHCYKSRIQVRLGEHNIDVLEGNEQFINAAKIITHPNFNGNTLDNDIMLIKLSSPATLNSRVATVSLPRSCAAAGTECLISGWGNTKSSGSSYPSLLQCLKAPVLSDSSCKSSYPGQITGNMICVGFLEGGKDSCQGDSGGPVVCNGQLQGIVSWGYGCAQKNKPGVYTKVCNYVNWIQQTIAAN

Row | Substance | Ki (Porcine trypsin) [nM] | inhibition of plasmin (Human plasmin) | inhibition of cathepsin G [1] | inhibition of neutrophil elastase [2] | Ki [3] [nM] | inhibitory effect on collagenase (collagenase)
1 | KFN 1900: [R15K, D16A] analog of the human α3(VI) collagen Kunitz-type protease inhibitor domain, produced from yeast strain KFN-1900 | 50 | weak inhibitors | did not inhibit | did not inhibit | – | –
2 | KFN 1901: [D16A] analog of the human α3(VI) collagen Kunitz-type protease inhibitor domain, produced from yeast strain KFN-1901 | 355 | weak inhibitors | did not inhibit | did not inhibit | – | –
3 | [D16A]-α3(VI) Kunitz-type domain analog (from UniProt P12111) | – | – | – | – | 355 | –
4 | [R15K, D16A]-α3(VI) Kunitz-type domain analog (from UniProt P12111) | – | – | – | – | 50 | –
5 | aprotinin(1-58, Val15) | – | – | – | – | – | inhibitory effect
